Data taken from article PMC3553564.

B1: dsDNA (dsDNA)
DNA 1: CCTTACAGCAAA
DNA 2: TTTGCTGTAAGG
B2: dsRNA (dsRNA)
RNA 1: AUCGGGCA
RNA 2: UGCCCGAU

Legend:
Test in all cases: fluorescence polarization
[1] = target: PWI ΔHb (Homo sapiens, UniProt P49756 746-843, del734-745)
[2] = target: PWI H737A+K739A (Homo sapiens, UniProt P49756 734-843, H737A;K739A)
[3] = target: PWI K825A+R828A (Homo sapiens, UniProt P49756 734-843, K825A;R828A)
[4] = target: PWI K744A (Homo sapiens, UniProt P49756 734-843, K744A)
Sequence of PWI K744A (P49756 734-843 K744A): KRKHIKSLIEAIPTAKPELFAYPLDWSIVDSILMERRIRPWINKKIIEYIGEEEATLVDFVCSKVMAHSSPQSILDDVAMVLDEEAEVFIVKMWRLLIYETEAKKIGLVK

[5] = target: PWI R769A+R770A (Homo sapiens, UniProt P49756 734-843, R769A;R770A)
Sequence of PWI R769A+R770A (P49756 734-843 R769A/R770A): as the sequence (P49756 734-843 K744A) above, with A11K, R36A, R37A counted along it

[6] = target: PWI K734A+R735A+K736A (Homo sapiens, UniProt P49756 734-843, K734A;R735A;K736A)
Sequence of PWI K734A+R735A+K736A (P49756 734-843 K734A/R735A/K736A): as the sequence (P49756 734-843 K744A) above, with K1A, R2A, K3A, A11K counted along it

[7] = target: RBM25 PWI domain + flanking basic region WT (Homo sapiens, UniProt P49756 734-843)
Sequence of RBM25 PWI domain + flanking basic region WT (P49756 734-843): as the sequence (P49756 734-843 K744A) above, with A11K counted along it

[8] = target: PWI K777A+K778A (Homo sapiens, UniProt P49756 734-843, K777A;K778A)
Sequence of PWI K777A+K778A (P49756 734-843 K777A/K778A): as the sequence (P49756 734-843 K744A) above, with A11K, K44A, K45A counted along it

[9] = target: PWI K837A+K838A (Homo sapiens, UniProt P49756 734-843, K837A;K838A)
Sequence of PWI K837A+K838A (P49756 734-843 K837A/K838A): as the sequence (P49756 734-843 K744A) above, with A11K, K104A, K105A counted along it

Sequence of PWI H737A+K739A (P49756 734-843 H737A/K739A): as the sequence (P49756 734-843 K744A) above, with H4A, K6A, A11K counted along it
Sequence of PWI K825A+R828A (P49756 734-843 K825A/R828A): as the sequence (P49756 734-843 K744A) above, with A11K, K92A, R95A counted along it
Sequence of PWI ΔHb (P49756 746-843, stated change not applied): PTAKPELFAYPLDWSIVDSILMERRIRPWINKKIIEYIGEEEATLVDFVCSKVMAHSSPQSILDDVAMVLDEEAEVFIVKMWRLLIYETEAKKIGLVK

Row | Binder | binding result [1] | Kd [2] [µM] | Kd [3] [µM] | Kd [4] [µM] | Kd [5] [µM] | Kd [6] [µM] | Kd [7] [µM] | Kd [8] [µM] | Kd [9] [µM]
1 | B1 | no binding | ~57 | ~106 | ~23.6 | ~46 | ~194 | ~6.7 | ~160 | ~40.4
2 | B2 | – | – | – | – | – | – | ~8.2 | – | –
3 | AUCGGGCA (ssRNA) [ssRNA] | no binding | 61.6 ± 9.3 | 106 ± 17.3 | 19.9 ± 4.4 | 32.1 ± 1.4 | 183 ± 44.7 | 11.3 ± 1 | 156 ± 29.4 | 15.7 ± 2.1
4 | CCTTACAGCAAA (ssDNA) [ssDNA] | – | – | – | – | – | – | ~4.4 | – | –
